Data from PMC11093223 (2024).

B1: syntaxin-16 (209–221) peptide [human] / TBC1D23 C-terminal domain [mouse] (parent complex)
chain 1: DDNTLYHRGFTED
chain 2: DRKEVVNIQTWINKPDIKHHFPCKEVKESGHMFPSHLLVTATHMYCLREILSRKGLAYIQSRQALNSVVKITSKKKHPELITFKYGNSSASGIEILAIERYLIPNAGDATRAIKQQIMKVLDALES

Variants of: B1
Assay: ITC

Variant	Kd
chain 1 R8A	10.3 µM
